“And” between values parts separate entries of the source, which are not always exact repeats. Equal values may be shown once. Ends that are not written are not given here.
Experiments:
Assay type in all cases: physicochemical
[1] = Retention of peptides 2DOS-1 to 2DOS-16 on a hydrophobic surface (polypropylene microtitre plate wells), water wash; conditions: 400V scan; for Initial fluorescence (×10^3): 100 μl of 10 μM peptide before drying and washing; for Recovered fluorescence (×10^3): dried, washed ten times with 250 μl water, resuspended
Experimental: The retention of peptides 2DOS-1 to 2DOS-16 on a hydrophobic surface (the wells of a polypropylene microtitre plate) was then investigated.
(§1) 10 mM tris-HCl (pH 8.0) in 50% (v/v) aqueous acetonitrile was used as the solvent for the peptides and for TAMRA.
100 μl aliquots of 10 μM peptides 2DOS-1 to 2DOS-16 and 10 μM TAMRA were placed in the wells of a Costar microtitre plate as shown in FIG. 13:
(§2) The microtitre plate was imaged at 200 μm resolution on a Typhoon Trio Plus variable mode imager (Amersham Biosciences) with the green (532 nm) laser and the 580 BP 30 filter at the PMT voltages indicated below and at normal sensitivity. The scan height was set at +3 mm and the sample was pressed during scanning.
The peptides were allowed to evaporate to dryness overnight in the dark and the microtitre plate was again scanned as described above.
The wells were then washed ten times with 250 μl of water.
The residual surface-bound peptides were finally resuspended in 100 μl of 10 mM tris-HCl (pH 8.0) in 50% (v/v) aqueous acetonitrile and the microtitre plate was again scanned as described above.
(§3) The fluorescence images were analysed using ImageQuant TL v2003.03 (Amersham Biosciences).
Quantification data (using the data from the 400V scan) is given in Table 2 and shown graphically in FIG. 15.

[2] = Retention of peptides in V-bottomed polypropylene wells; conditions: V-bottom wells, 500V scan; for Untreated fluorescence: unwashed; for Retained fluorescence: washed 15 minutes in 1 M NaCl in 10 mM tris-HCl (pH 8.0)
Experimental: (§4) The retention of peptides 2DOS-1 to 2DOS-16 (see above) on polypropylene wells of different geometries was investigated:
as §1
(§5) 1 μl aliquots of 10 μM peptides 2DOS-1 to 2DOS-16 and 10 μM TAMRA were pipetted into the wells of a Costar V-bottomed polypropylene microtitre plate and a Greiner flat-bottomed polypropylene microtitre plate according to the following scheme as shown in FIG. 22:
(§6) The peptide samples were allowed to evaporate to dryness in the dark.
(§7) The peptide samples in the top two rows of the microtitre plates were then incubated for 15′ minutes at room temperature in 250 μl of 1 M NaCl in 10 mM tris-HCl (pH 8.0).
(§8) After incubation, the wash buffer was pipetted up and down eight times in the well before removing the supernatant.
(§9) The washed and untreated peptide samples were then resuspended in 50 μl of 10 mM tris-HCl (pH 8.0) in 50% (v/v) aqueous acetonitrile.
as §2, with “plates were” for “plate was”, “the platen” for “+3 mm”, “during,” for “during”
as §3

[3] = Retention of peptides in flat-bottomed polypropylene wells; conditions: flat-bottom wells, 500V scan; for Untreated fluorescence: unwashed; for Retained fluorescence: washed 15 minutes in 1 M NaCl in 10 mM tris-HCl (pH 8.0)
Experimental: as §4, §1, §5, §6, §7, §8, §9
as §2, with “plates were” for “plate was”, “the platen” for “+3 mm”, “during,” for “during”
as §3

[4] = Retention of peptides on Costar polypropylene V-bottom wells; conditions: 400V scan; for Untreated fluorescence: unwashed; for Retained fluorescence: washed 15 minutes in 1 M NaCl in 10 mM tris-HCl (pH 8.0)
Experimental: (§10) The retention of peptides 2DOS-1 to 2DOS-16 (see above) on polypropylene and polystyrene surfaces was compared:
(§11) 5 mM tris-HCl (pH 8.0) in 75% (v/v) aqueous acetonitrile was used as the solvent for the peptides and for TAMRA.
(§12) 20 μl aliquots of 5 μM peptides 2DOS-1 to 2DOS-16 and 5 μM TAMRA were pipetted into the wells of a Costar V-bottomed polypropylene microtitre plate, a Greiner V-bottomed polypropylene microtitre plate, and a Greiner V-bottomed polystyrene microtitre plate according to the scheme shown in FIG. 26:
as §6
(§13) The peptide samples in the top two rows of the microtitre plates were then incubated for 15 minutes at room temperature in 250 μl of 1 M NaCl in 10 mM tris-HCl (pH 8.0).
as §8, §9
as §2, with “plates were” for “plate was”
as §3

[5] = Retention of peptides on Greiner polypropylene V-bottom wells; conditions: 400V scan; for Untreated fluorescence: unwashed; for Retained fluorescence: washed 15 minutes in 1 M NaCl in 10 mM tris-HCl (pH 8.0)
Experimental: as §10, §11, §12, §6, §13, §8, §9
as §2, with “plates were” for “plate was”
as §3

[6] = Retention of peptides on Greiner polystyrene V-bottom wells; conditions: 400V scan; for Untreated fluorescence: unwashed; for Retained fluorescence: washed 15 minutes in 1 M NaCl in 10 mM tris-HCl (pH 8.0)
Experimental: as §10, §11, §12, §6, §13, §8, §9
as §2, with “plates were” for “plate was”
as §3

[7] = Retention of peptides P1-1 to P1-5 on a polypropylene sheet after successive washes; conditions: for Average fluorescence, control array / Corrected signal, control array: unwashed control array
Experimental: Further experiments were undertaken to investigate the retention of peptides P1-1 to, P1-5 and P2-1 to P2-2, shown in Table 3, on a polypropylene surface.
The polypropylene sheet was wiped with 50% (v/v) aqueous acetonitrile prior to use.
8× replicate 20 nl volumes of 1 μM peptides P1-1 to P1-5 and P2-1 to P2-2 and TAMRA in dimethyl sulphoxide (DMSO) were dispensed at 1 mm spacing to a 3″×1″×1 mm polypropylene sheet using the Piezorray system (PerkinElmer LAS). 500 drops were pre-dispensed using the ‘side shoot’ option and the tuning was set to 72V for 30 μs.
The slide was imaged at 10 μm resolution on a Typhoon Trio Plus variable mode imager (Amersham Biosciences) with the green (532 nm) laser and the 580 BP 30 filter at a PMT voltage of 600 V and at normal sensitivity. The scan height was set at the platen and the samples were pressed during scanning. The fluorescence image was analysed using ImageQuant TL v2003.03 (Amersham Biosciences).
The lower half of the slide (containing the test array) was then washed in 100 ml of 1 M NaCl containing 10 mM tris-HCl (pH 8.0) for one minute and were re-scanned as described above.
The same half of the slide was then washed for a second time in 100 ml of 1 M NaCl containing 10 mM tris-HCl (pH 8.0) for 30 minutes and re-scanned as described above.
The same half of the slide was then washed for a third time in 100 ml of water for 30 minutes and re-scanned as described above.

[8] = after first wash scan, slide background subtracted
[9] = after first wash: 1 M NaCl/10 mM tris-HCl (pH 8.0), one minute
[10] = after first wash: 1 M NaCl/10 mM tris-HCl (pH 8.0), one minute, background subtracted
[11] = after second wash scan, background subtracted
[12] = after second wash: 1 M NaCl/10 mM tris-HCl (pH 8.0), 30 minutes
[13] = after second wash: 1 M NaCl/10 mM tris-HCl (pH 8.0), 30 minutes, background subtracted
[14] = after third wash scan, background subtracted
[15] = after third wash: water, 30 minutes
[16] = after third wash: water, 30 minutes, background subtracted

Substance	Percent retention [2]	Untreated fluorescence [2]	Retained fluorescence [2]	Untreated fluorescence [3]	Percent retention [4]	Untreated fluorescence [4]	Retained fluorescence [4]	Percent retention [5]	Average fluorescence, control array ([7]; after first wash scan)	Corrected signal, control array [7, 8]	Average fluorescence, test array [7, 9]	Corrected signal, test array [7, 10]	Average fluorescence, control array ([7]; after second wash scan)	Corrected signal, control array [7, 11]	Average fluorescence, test array [7, 12]	Corrected signal, test array [7, 13]	Average fluorescence, control array ([7]; after third wash scan)	Corrected signal, control array [7, 14]	Average fluorescence, test array [7, 15]	Corrected signal, test array [7, 16]	further results
N-TAMPA- Asp-Norleu- Ala-Norleu-Ser- Norleu-Lys-C [Peptide 2DOS-5]	36%	8,664,667	3,116,833	14,337,629	31%	5,331,763	1,651,850	27%													Initial fluorescence (×10^3) [1]: 32,473 ×10^3; Recovered fluorescence (×10^3) [1]: 1,270 ×10^3; Percent retention [3]: 45%; Retained fluorescence [3]: 6,492,170; Untreated fluorescence [5]: 3,817,250; Retained fluorescence [5]: 1,048,978; Percent retention [6]: 23%; Untreated fluorescence [6]: 745,029; Retained fluorescence [6]: 171,500
N-TAMPA-Asp-Asp- Ala-Asp-Ser-Asp- Lys-C ({TAMRA}-DDADSDK) [Peptide 2DOS-8]	2%	10,130,734	202,943	17,576,485	1%	6,587,741	93,455	2%													Initial fluorescence (×10^3) [1]: 33,615 ×10^3; Recovered fluorescence (×10^3) [1]: 3 ×10^3; Percent retention [3]: 4%; Retained fluorescence [3]: 637,350; Untreated fluorescence [5]: 3,903,470; Retained fluorescence [5]: 80,770; Percent retention [6]: 1%; Untreated fluorescence [6]: 842,984; Retained fluorescence [6]: 5,071
TAMRA [reference compound]	5% and 4% and 6%	12,610,993 and 15,392,751 and 17,471,866	640,684 and 686,863 and 998,320	18,396,859 and 20,662,891 and 20,649,165	3%	11,786,211	386,629	1%													Untreated fluorescence [5]: 6,199,206; Retained fluorescence [5]: 64,916; Percent retention [6]: 1%; Untreated fluorescence [6]: 1,051,154; Retained fluorescence [6]: 10,004
TAMRA-F-G-F-G-F-G-F-G-F-G-F-S-F-A-F-D-F-G-F ({TAMRA}-FGFGFGFGFGFSFAFDFGF) [Peptide P1-5]									199,347,483	52,655,810	201,991,732	47,493,774	190,847,825	53,567,975	167,865,473	35,418,169	183,492,293	49,585,053	147,812,043	23,514,817	Retention on polypropylene surface (in words) ([7]; compared among P1-1 to P1-5, chain length of 19 amino acids): highest retention
TAMRA-F-G-F-G-F-G-F-G-F-S-F-A-F-D-F-G-F ({TAMRA}-FGFGFGFGFSFAFDFGF) [Peptide P1-4]									187,287,630	40,595,958	189,823,310	35,325,352	179,942,418	42,662,569	159,100,527	26,653,223	176,102,487	42,195,247	135,681,173	11,383,947	
TAMRA-F-G-F-G-F-G-F-S-F-A-F-D-F-G-F ({TAMRA}-FGFGFGFSFAFDFGF) [Peptide P1-3]									192,743,469	46,051,796	171,197,973	16,700,014	187,310,655	50,030,806	148,725,456	16,278,152	184,219,147	50,311,907	125,717,642	1,420,417	
TAMRA-F-G-F-G-F-S-F-A-F-D-F-G-F ({TAMRA}-FGFGFSFAFDFGF) [Peptide P1-2]									200,280,129	53,588,457	170,078,218	15,580,260	196,080,891	58,801,042	135,695,639	3,248,336	185,727,868	51,820,628	126,193,156	1,895,931	
TAMRA-F-G-F-S-F-A-F-D-F-G-F ({TAMRA}-FGFSFAFDFGF) [Peptide P1-1]									244,263,013	97,571,341	157,624,537	3,126,578	225,863,933	88,584,083	127,216,792	−5,230,512	218,342,010	84,434,769	124,941,941	644,716	

From patent publication US20090192048A1, “METHOD OF PRODUCING A […] AGENT FOR BINDING A LIGAND” (priority 2005, published 2009)
